Experimental data: the supplement of paper PMC7125110
± gives the standard error. For part of these data: Fewer inactive variants are shown than the library holds.

B1: glmS ribozyme (parent)
chain: AUAAAAGCGCCAGAACUACAGAAAUGUAGUUGACGAGGAGGAGGUUUAUCGAAUUUUCGGCGGAUGCCUCCAAA

Tests used:
Conditions in all cases: with glucosamine-6-phosphate
[1] = variants of: B1; assay: kcat; higher = faster cleavage; RNA array
Outline: (§1)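 kobs was derived by fitting per-tile medians to one- or two-exponential decays after normalising signals to baseline and to non-cleaving reference variants. Those signals came from barcoded ribozyme variants transcribed in situ by E. coli RNA polymerase on sequenced MiSeq chips, followed through a hybridised Cy3 probe at 37 °C and imaged over ~14 h. Glucosamine-6-phosphate (40 μM to 10 mM) in HEPES/KCl/Mg(OAc)2 buffer was flowed in. Weighted Michaelis–Menten fits across concentrations then gave kcat and KM.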

[2] = variants of: B1; assay: KM; higher = weaker cofactor use; RNA array
Outline: as §1

[3] = variants of: B1; assay: self-cleavage kobs at 40 uM GlcN6P; higher = faster cleavage; RNA array
Outline: as §1

[4] = variants of: B1; assay: self-cleavage kobs at 160 uM GlcN6P; higher = faster cleavage; RNA array
Outline: as §1

[5] = variants of: B1; assay: self-cleavage kobs at 640 uM GlcN6P; higher = faster cleavage; RNA array
Outline: as §1

[6] = variants of: B1; assay: self-cleavage kobs at 2500 uM GlcN6P; higher = faster cleavage; RNA array
Outline: as §1

[7] = variants of: B1; assay: self-cleavage kobs at 10000 uM GlcN6P; higher = faster cleavage; RNA array
Outline: as §1

Variant	kcat [1] [s⁻¹]	KM [2] [µM]	self-cleavage kobs at 40 uM GlcN6P [3] [s⁻¹]	self-cleavage kobs at 160 uM GlcN6P [4] [s⁻¹]	self-cleavage kobs at 640 uM GlcN6P [5] [s⁻¹]	self-cleavage kobs at 2500 uM GlcN6P [6] [s⁻¹]	self-cleavage kobs at 10000 uM GlcN6P [7] [s⁻¹]
U49G A53G	0.00124 ± 0.00011	1440 ± 230	3.67e-05 ± 1.3e-05	0.000136 ± 2.5e-05	0.000361 ± 6.3e-05	0.000714 ± 0.00011	0.00116 ± 0.00015
G66A C67G	0.00418 ± 0.0021		0.000102 ± 1.4e-05	0.000414 ± 5.4e-05	0.000703 ± 0.0001	0.00281 ± 0.00066	0.00412 ± 0.00067
G66A C67U	0.00255 ± 0.00091		0.000173 ± 2.6e-05	0.000398 ± 6.5e-05	0.00134 ± 0.0002	0.0016 ± 0.0003	0.00498 ± 0.00098
U49C U69G	1.6e-05 ± 5e-06						
C58U C61G	3.19e-05 ± 9.4e-06				5.03e-05 ± 1.4e-05	2.9e-05 ± 1.3e-05	
A53C U57A U69A	1.88e-05 ± 5.8e-06						
C61A C70G	1.68e-05 ± 3.8e-06						
C61A C70U	1.28e-05 ± 2.9e-06						
C61A C70A	< 1e-05		< 1e-05	< 1e-05			
U54A C70A	0.000115 ± 1.2e-05	42.6 ± 17	5.92e-05 ± 7.9e-06	7.42e-05 ± 1.3e-05	0.000107 ± 1.4e-05	0.000122 ± 1.5e-05	
U55A C61U	1.43e-05 ± 1.1e-06	1930 ± 520					
U65G C68A	6.34e-05 ± 1e-06	501 ± 50				5.3e-05 ± 1.2e-05	6.04e-05 ± 9.2e-06
G60U C67A C68U	< 1e-05				< 1e-05		< 1e-05
C50A C70A	4.02e-05 ± 1.1e-05			3.47e-05 ± 1.5e-05	3.8e-05 ± 1.3e-05	5.27e-05 ± 1e-05	
G63U	< 1e-05		< 1e-05	< 1e-05		< 1e-05	< 1e-05
C50A C58G	< 1e-05						< 1e-05
A64G U65C C70G	1.52e-05 ± 6.7e-06						
C58A A64C	< 1e-05		< 1e-05				
C50G U65G	5.8e-05 ± 2.4e-05			4.97e-05 ± 1.7e-05		7.28e-05 ± 2.4e-05	
G66C C68U	0.00021 ± 1.1e-05	1890 ± 220			5.11e-05 ± 1e-05	0.000132 ± 2.7e-05	0.000173 ± 2.3e-05
U54A U65G	0.00357 ± 0.0014		5.78e-05 ± 9.8e-06	0.000211 ± 3.9e-05	0.000927 ± 0.00015	0.001 ± 0.00025	0.00358 ± 0.00043
